Experimental findings from patent publication US9212226B2, “Amino acid sequences directed against CXCR4 and other GPCRs and compounds comprising the same” (Ablynx N.V., priority 2008, dated 2015) are described below.

In the assay the target is CXCR4 (Homo sapiens, UniProt P61073). In words: [125I]-238D2 competition binding on membranes from HEK293T cells transiently expressing CXCR4.
The mark [1] stands for this setting: membranes from HEK293T cells transiently expressing CXCR4, mean ± S.E.M.

Chain of CXCR4 (P61073 whole entry): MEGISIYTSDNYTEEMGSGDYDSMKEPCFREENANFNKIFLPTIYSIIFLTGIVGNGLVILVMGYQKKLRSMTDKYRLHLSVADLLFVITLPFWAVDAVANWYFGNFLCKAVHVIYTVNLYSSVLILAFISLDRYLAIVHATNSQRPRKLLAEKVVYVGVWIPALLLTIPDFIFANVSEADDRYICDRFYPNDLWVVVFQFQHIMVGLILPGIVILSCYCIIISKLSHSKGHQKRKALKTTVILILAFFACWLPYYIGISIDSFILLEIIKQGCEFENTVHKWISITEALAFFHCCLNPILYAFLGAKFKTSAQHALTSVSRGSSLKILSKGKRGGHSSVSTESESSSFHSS

B1: 238D2: Nanobody (VHH) raised against human CXCR4, SEQ ID NO: 238 (protein)
VHH: EVQLVESGGGLVQTGGSLRLSCAASGFTFSSYAMSWVRQAPGKGLEWVSGIKSSGDSTRYAGSVKGRFTISRDNAKNMLYLQMYSLKPEDTAVYYCAKSRVSRTGLYTYDNRGQGTQVTVSS
modifications: Nanobody, Nanobody constructs or fragments thereof
For B1, under setting [1], the “Displacem. (%) of [125I]-238D2 (maximal displacement)” value was found to be 97 ± 6% and the “pKi, [125I]-238D2” value is listed as 8.41 ± 0.11.

B2: 238D4: Nanobody (VHH) raised against human CXCR4, SEQ ID NO: 239 (protein)
VHH: EVQLMESGGGLVQAGGSLRLSCAASGRTFNNYAMGWFRRAPGKEREFVAAITRSGVRSGVSAIYGDSVKDRFTISRDNAKNTLYLQMNSLKPEDTAVYTCAASAIGSGALRRFEYDYSGQGTQVTVSS
modifications: Nanobody, Nanobody constructs or fragments thereof
On to B2, for which the “displacement of [125I]-238D2 from CXCR4” value ([125I]-238D2 3 nM) is reported as “full displacement”. Besides, under setting [1], the “Displacem. (%) of [125I]-238D2 (maximal displacement)” value is listed as 101 ± 1%.
